Experimental data as given in the supplement of paper PMC10065799, “High-throughput profiling of sequence recognition by tyrosine kinases and SH2 domains using bacterial peptide display” (eLife, 2023).

Experiments:
AncSZ = experiment: phosphorylation enrichment, bacterial display (enrichment ratio); higher = better substrate or ligand; peptides without Tyr show the background
EPHB1 = EPHB1 (UniProt P54762); experiment: as above
EPHB2 = EPHB2 (UniProt P29323); experiment: as above
FGFR1 = FGFR1 (UniProt P11362); experiment: as above
FGFR3 = FGFR3 (UniProt P22607); experiment: as above
Chain of FGFR3 (P22607 whole entry, looked up): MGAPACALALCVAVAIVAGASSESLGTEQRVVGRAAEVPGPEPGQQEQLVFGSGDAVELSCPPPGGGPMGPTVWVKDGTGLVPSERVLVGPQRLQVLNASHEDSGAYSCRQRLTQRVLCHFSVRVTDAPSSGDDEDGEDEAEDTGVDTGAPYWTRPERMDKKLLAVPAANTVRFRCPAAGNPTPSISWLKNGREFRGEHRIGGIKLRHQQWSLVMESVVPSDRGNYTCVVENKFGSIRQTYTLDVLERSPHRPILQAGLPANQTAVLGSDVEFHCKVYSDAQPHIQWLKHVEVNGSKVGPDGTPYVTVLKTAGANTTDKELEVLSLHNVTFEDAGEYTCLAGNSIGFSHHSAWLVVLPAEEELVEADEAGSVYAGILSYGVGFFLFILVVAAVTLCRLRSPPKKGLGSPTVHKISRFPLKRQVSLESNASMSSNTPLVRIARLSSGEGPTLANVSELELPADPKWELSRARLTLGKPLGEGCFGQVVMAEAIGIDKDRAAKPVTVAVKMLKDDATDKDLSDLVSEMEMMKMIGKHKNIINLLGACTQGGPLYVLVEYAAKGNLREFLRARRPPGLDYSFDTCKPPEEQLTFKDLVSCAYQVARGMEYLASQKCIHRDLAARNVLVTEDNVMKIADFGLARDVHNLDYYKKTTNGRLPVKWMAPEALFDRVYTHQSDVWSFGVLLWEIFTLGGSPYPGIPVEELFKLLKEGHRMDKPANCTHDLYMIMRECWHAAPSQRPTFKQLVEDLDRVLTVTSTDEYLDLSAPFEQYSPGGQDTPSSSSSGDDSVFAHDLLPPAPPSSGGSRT

Fer (mouse) = experiment: as above
Fes = Fes (UniProt P07332); experiment: as above
Chain of Fes (P07332 whole entry, looked up): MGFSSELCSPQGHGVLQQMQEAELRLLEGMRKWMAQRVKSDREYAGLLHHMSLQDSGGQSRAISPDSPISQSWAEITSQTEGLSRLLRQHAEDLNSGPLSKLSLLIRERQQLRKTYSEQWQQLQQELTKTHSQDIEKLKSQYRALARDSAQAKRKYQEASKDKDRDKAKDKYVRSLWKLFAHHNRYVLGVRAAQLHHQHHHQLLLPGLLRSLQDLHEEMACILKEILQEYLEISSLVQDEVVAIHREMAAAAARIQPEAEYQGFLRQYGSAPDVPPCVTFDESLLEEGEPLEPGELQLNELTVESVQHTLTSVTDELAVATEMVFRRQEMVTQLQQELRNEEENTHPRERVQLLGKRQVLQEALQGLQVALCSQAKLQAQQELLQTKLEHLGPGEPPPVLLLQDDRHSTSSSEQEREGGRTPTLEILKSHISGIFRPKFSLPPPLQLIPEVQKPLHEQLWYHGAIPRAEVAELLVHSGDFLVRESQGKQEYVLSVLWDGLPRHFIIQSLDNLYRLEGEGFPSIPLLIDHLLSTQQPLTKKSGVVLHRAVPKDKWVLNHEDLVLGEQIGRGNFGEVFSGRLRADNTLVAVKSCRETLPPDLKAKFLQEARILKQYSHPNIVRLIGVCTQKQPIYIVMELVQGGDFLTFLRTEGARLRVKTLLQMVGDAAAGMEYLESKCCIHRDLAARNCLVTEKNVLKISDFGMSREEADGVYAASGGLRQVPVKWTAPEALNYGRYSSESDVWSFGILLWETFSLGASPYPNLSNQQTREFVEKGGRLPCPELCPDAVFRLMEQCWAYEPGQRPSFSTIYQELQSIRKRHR

Fyn = Fyn (UniProt P06241); experiment: as above
Hck = Hck (UniProt P08631); experiment: as above
Jak2 = Jak2 (UniProt O60674); experiment: as above
MERTK = MERTK (UniProt Q12866); experiment: as above
Chain of MERTK (Q12866 whole entry, looked up): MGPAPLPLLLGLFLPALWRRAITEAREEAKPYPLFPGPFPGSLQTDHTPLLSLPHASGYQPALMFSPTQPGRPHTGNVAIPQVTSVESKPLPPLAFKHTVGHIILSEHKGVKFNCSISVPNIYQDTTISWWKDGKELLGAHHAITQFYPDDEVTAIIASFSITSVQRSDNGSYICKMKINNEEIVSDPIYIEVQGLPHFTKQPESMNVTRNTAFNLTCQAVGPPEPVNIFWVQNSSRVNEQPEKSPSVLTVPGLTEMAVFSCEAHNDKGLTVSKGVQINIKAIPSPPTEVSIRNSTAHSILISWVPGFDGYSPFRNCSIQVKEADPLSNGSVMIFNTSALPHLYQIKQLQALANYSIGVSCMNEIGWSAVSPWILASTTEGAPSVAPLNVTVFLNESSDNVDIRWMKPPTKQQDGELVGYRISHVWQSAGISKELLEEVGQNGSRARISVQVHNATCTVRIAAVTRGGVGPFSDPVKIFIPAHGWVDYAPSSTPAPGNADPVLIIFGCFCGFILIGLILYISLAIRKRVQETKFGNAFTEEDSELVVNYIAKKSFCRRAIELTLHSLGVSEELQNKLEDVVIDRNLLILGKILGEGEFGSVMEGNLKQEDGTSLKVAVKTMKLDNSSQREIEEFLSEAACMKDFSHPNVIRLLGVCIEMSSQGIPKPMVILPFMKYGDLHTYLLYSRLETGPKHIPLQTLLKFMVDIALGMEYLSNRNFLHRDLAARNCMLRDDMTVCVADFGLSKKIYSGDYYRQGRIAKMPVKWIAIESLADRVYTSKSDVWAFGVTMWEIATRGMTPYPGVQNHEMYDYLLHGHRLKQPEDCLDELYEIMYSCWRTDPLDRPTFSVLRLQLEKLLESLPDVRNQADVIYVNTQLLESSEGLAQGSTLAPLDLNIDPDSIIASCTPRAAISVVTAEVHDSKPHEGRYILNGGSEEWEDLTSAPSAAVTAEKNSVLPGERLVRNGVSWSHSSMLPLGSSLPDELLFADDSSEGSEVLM

c-Abl (mouse) = experiment: as above
c-Src = experiment: as above
Grb2 SH2 = Grb2 SH2 (UniProt P62993); experiment: SH2 binding enrichment of the phosphorylated peptide, bacterial display (enrichment ratio); higher = better substrate or ligand; peptides without Tyr show the background
Chain of Grb2 SH2 (P62993 whole entry, looked up): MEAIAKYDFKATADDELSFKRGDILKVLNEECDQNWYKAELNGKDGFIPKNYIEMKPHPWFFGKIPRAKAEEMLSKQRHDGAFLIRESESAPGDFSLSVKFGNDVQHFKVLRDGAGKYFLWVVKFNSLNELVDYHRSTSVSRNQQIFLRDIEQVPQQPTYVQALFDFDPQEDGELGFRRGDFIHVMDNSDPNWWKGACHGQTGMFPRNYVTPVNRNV

SHP2-C SH2 = experiment: as above
c-Src SH2 = experiment: as above
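For SH2 binding enrichment of the phosphorylated peptide, bacterial display in this document: peptide library displayed on the E. coli surface as eCPX fusions, selected cells deep-sequenced, score is each peptide's frequency after selection divided by its frequency in the input.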
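For phosphorylation enrichment, bacterial display in this document: 11-residue human phosphosite peptides and single-mutation variants displayed on the E. coli surface, counted by deep sequencing, each peptide's frequency after selection divided by its frequency in the unselected input library; frequency after pTyr selection over input frequency; kinase dosed for 20-30% of maximal phosphorylation in three min.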

Chain of EPHB1 (P54762 whole entry, looked up): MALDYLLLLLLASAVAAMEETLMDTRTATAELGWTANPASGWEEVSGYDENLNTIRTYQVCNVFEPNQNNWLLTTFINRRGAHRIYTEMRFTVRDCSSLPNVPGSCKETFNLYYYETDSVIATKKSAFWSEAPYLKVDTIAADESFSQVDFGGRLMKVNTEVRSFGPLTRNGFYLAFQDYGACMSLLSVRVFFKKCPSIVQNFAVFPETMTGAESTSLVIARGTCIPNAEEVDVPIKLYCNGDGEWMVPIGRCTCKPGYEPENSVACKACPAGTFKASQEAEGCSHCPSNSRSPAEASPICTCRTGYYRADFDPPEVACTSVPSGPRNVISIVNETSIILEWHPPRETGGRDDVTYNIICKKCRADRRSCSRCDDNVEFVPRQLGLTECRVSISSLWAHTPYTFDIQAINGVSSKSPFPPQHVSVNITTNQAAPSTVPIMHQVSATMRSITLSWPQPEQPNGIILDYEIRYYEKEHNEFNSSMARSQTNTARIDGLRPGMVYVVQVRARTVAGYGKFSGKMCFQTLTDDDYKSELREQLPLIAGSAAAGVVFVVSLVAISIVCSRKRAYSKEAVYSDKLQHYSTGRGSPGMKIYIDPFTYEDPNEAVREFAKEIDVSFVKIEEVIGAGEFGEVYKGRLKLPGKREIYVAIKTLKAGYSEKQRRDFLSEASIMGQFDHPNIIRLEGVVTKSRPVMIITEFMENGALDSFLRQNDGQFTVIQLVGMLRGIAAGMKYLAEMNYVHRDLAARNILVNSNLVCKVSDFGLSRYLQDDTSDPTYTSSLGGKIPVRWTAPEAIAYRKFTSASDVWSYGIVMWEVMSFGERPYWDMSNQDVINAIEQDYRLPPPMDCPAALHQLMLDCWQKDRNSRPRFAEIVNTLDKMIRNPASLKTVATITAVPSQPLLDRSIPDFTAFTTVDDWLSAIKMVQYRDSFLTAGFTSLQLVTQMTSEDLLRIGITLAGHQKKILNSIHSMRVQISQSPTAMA
Chain of EPHB2 (P29323 whole entry, looked up): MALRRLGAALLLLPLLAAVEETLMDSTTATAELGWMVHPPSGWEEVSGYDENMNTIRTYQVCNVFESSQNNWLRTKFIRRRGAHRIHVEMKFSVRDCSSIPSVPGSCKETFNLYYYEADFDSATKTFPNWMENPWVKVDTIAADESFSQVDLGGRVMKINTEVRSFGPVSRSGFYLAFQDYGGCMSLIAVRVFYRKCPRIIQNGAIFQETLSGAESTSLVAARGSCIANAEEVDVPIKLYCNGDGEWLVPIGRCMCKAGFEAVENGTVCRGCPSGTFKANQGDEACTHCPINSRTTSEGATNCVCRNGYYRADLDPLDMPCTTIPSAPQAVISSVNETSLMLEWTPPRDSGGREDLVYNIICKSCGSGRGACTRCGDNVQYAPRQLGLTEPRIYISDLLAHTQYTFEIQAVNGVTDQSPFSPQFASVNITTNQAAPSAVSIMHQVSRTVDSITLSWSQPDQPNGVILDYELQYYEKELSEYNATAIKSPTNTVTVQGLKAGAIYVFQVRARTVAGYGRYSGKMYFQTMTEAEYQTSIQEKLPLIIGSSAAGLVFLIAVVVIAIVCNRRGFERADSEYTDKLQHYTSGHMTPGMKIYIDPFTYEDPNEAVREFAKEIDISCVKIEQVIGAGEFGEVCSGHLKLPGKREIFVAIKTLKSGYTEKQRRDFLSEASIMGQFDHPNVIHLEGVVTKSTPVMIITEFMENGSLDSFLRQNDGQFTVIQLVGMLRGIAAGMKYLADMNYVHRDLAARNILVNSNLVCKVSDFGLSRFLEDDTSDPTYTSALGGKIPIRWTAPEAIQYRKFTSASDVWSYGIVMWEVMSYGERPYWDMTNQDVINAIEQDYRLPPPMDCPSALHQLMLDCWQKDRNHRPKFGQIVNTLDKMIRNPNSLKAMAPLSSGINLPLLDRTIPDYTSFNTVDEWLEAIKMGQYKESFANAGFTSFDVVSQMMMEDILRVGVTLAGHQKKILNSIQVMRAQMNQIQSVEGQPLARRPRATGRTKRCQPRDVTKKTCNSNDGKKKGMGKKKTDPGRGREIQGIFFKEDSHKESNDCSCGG

Sequence | phosphorylation enrichment (AncSZ) | phosphorylation enrichment (EPHB1) | phosphorylation enrichment (EPHB2) | phosphorylation enrichment (FGFR1) | phosphorylation enrichment (FGFR3) | phosphorylation enrichment (Fer (mouse)) | phosphorylation enrichment (Fes) | phosphorylation enrichment (Fyn) | phosphorylation enrichment (Hck) | phosphorylation enrichment (Jak2) | phosphorylation enrichment (MERTK) | phosphorylation enrichment (c-Abl (mouse)) | phosphorylation enrichment (c-Src) | SH2 binding enrichment (Grb2 SH2) | SH2 binding enrichment (SHP2-C SH2) | SH2 binding enrichment (c-Src SH2)
RSGIYYKPESL [L2HGDH_Y103_H98R] | 1.17 | 2.37 | 3.34 | 5.07 | 3.3 | 0.699 | 0.915 | 2.43 | 4.86 | 2.29 | 17 | 45.6 | 2.6 | 0.935 | 0.745 | 0.854
RSSGSYGGGGQ [HNRNPA1_Y341_P340S] | 0.492 | 1.5 | 0.606 | 0.536 | 0.485 | 0.438 | 0.532 | 0.539 | 0.423 | 0.354 | 0.415 | 0.527 | 0.366 | 0.777 | 0.68 | 0.457
RSSPVYVGRVV [TGM2_Y219] | 1.18 | 0.59 | 0.796 | 0.77 | 0.82 | 0.945 | 1.03 | 1.42 | 2.22 | 1.03 | 0.818 | 1.71 | 1.42 | 1.13 | 1.39 | 0.758
RTCSSYTIEKI [PARP15_Y520_A521T] | 0.937 | 0.608 | 0.474 | 0.475 | 1.18 | 0.502 | 1.51 | 0.638 | 0.726 | 1.13 | 0.533 | 0.84 | 0.544 | 0.813 | 0.739 | 0.59
RVAFQYGVTDL [MYBPC3_Y340_I336V] | 1.16 | 0.461 | 0.827 | 0.456 | 0.842 | 0.576 | 1.27 | 0.49 | 0.599 | 1.08 | 0.471 | 0.764 | 0.493 | 0.697 | 0.432 | 0.545
RVEDAYILTCN [CCT6A_Y229] | 1.07 | 0.515 | 0.487 | 0.721 | 0.689 | 4.93 | 0.928 | 0.839 | 0.692 | 0.772 | 0.498 | 0.565 | 1 | 0.663 | 0.54 | 0.671
RVKPIYFHTQG [AR_Y916_K911R] | 1.16 | 0.644 | 0.804 | 0.706 | 0.765 | 0.764 | 1.69 | 0.642 | 0.622 | 1.6 | 0.763 | 1.04 | 0.952 | 2.11 | 1.67 | 1.53
RVKTPYSLKRW [BMPR2_Y979] | 1.19 | 0.608 | 0.516 | 0.666 | 0.931 | 0.756 | 1.17 | 0.582 | 0.745 | 1.24 | 0.572 | 0.944 | 0.616 | 1.95 | 3.37 | 2.06
RVQKRYIFDNV [RCN1_Y115] | 0.531 | 0.291 | 0.472 | 0.484 | 0.619 | 0.381 | 0.442 | 0.319 | 0.328 | 0.455 | 0.422 | 0.252 | 0.394 | 0.468 | 0.503 | 0.273
SAASSYSFSDL [EMD_Y59] | 0.839 | 0.508 | 0.47 | 0.434 | 0.666 | 0.478 | 0.951 | 0.477 | 0.468 | 0.874 | 0.498 | 0.753 | 0.455 | 0.846 | 0.598 | 0.544
SCPANYFAFKI [FAM3D_Y65_P60S] | 1.16 | 3.97 | 2.09 | 7.58 | 5.33 | 0.785 | 1.08 | 0.901 | 1.05 | 5.24 | 7.13 | 3.31 | 2.62 | 1.12 | 0.996 | 0.823
SCTFTYLLGDR [ETHE1_Y38] | 1.11 | 0.491 | 0.56 | 0.446 | 0.575 | 0.426 | 1.2 | 0.491 | 0.404 | 0.921 | 0.409 | 0.604 | 0.515 | 0.83 | 0.729 | 0.588
SDGHEYIYVDP [PDGFRB_Y579] | 3.82 | 2.17 | 1.72 | 8.64 | 5.43 | 1.66 | 0.988 | 1.07 | 1.2 | 1.62 | 0.92 | 1.6 | 2 | 0.779 | 0.662 | 0.557
SDVCMYRKNIY [SYNE2_Y570] | 1.12 | 0.618 | 0.541 | 0.502 | 0.681 | 0.491 | 1.08 | 0.416 | 0.51 | 0.875 | 0.419 | 0.685 | 0.424 | 0.645 | 0.51 | 0.418
SDVDLYQVRTA [PSMD9_Y70] | 0.792 | 0.555 | 0.538 | 0.419 | 0.505 | 0.648 | 0.738 | 1.41 | 4.25 | 0.645 | 0.411 | 0.735 | 1.89 | 0.705 | 0.599 | 0.444
SENYTYIWWLN [PSG4_Y271_K267E] | 1.27 | 1.53 | 1.24 | 1.67 | 1.82 | 0.694 | 1.33 | 0.403 | 0.485 | 1.27 | 0.605 | 0.829 | 0.362 | 0.694 | 0.636 | 0.399
SESSFYKSLNL [NGEF_Y289_A286S_YF] | 1.06 | 0.598 | 0.516 | 0.477 | 0.816 | 0.562 | 1.25 | 0.479 | 0.521 | 1.06 | 0.468 | 0.853 | 0.508 | 0.775 | 0.495 | 0.48

Sequence | phosphorylation enrichment (AncSZ) | phosphorylation enrichment (EPHB1) | phosphorylation enrichment (EPHB2) | phosphorylation enrichment (FGFR1) | phosphorylation enrichment (FGFR3) | phosphorylation enrichment (Fer (mouse)) | phosphorylation enrichment (Fes) | phosphorylation enrichment (Fyn) | phosphorylation enrichment (Hck) | phosphorylation enrichment (Jak2) | phosphorylation enrichment (MERTK) | phosphorylation enrichment (c-Abl (mouse)) | phosphorylation enrichment (c-Src) | SH2 binding enrichment (Grb2 SH2) | SH2 binding enrichment (SHP2-C SH2) | SH2 binding enrichment (c-Src SH2)
SFGENYDNSKS [MAN1B1_Y60] | 0.766 | 0.434 | 0.461 | 0.452 | 0.548 | 0.444 | 0.958 | 0.438 | 0.408 | 0.89 | 0.567 | 0.833 | 0.464 | 0.765 | 0.571 | 0.75
SFHCSYSEIKD [DCLRE1C_Y322_S320C] | 1.06 | 0.599 | 0.59 | 0.558 | 0.811 | 0.639 | 1.21 | 0.585 | 0.568 | 0.9 | 0.497 | 0.873 | 0.647 | 0.704 | 2.29 | 3.86
SFVMVYEGNAR [INSR_Y1038_G1035V] | 1.28 | 0.621 | 0.683 | 0.562 | 0.85 | 0.551 | 1.25 | 0.634 | 0.747 | 1.22 | 0.393 | 0.618 | 0.77 | 0.973 | 0.942 | 0.531
SGGGLYRDMGA [CBX8_Y321] | 0.564 | 0.53 | 0.624 | 0.524 | 0.522 | 0.373 | 0.618 | 0.48 | 0.428 | 0.557 | 0.42 | 0.502 | 0.373 | 0.842 | 0.589 | 0.542
SGGGSYGSGGG [KRT1_Y539] | 0.626 | 0.312 | 0.282 | 0.351 | 0.372 | 0.356 | 0.491 | 0.412 | 0.346 | 0.599 | 0.349 | 0.512 | 0.271 | 0.526 | 0.608 | 0.444
SHLEDYPFNAE [AKR1B10_Y310] | 1.01 | 0.568 | 0.511 | 0.489 | 0.771 | 0.594 | 1.14 | 0.517 | 0.504 | 1.03 | 0.413 | 0.713 | 0.396 | 0.928 | 0.573 | 0.404
SHMVDYQPYRK [TEX37_Y25] | 0.759 | 0.609 | 0.402 | 0.47 | 0.505 | 0.575 | 0.83 | 0.59 | 0.701 | 0.719 | 0.575 | 0.91 | 0.673 | 0.735 | 0.365 | 0.445
SHNELYYEEAE [VANGL1_Y344] | 1.5 | 0.736 | 0.733 | 1.05 | 1.15 | 1.03 | 1.27 | 0.544 | 0.626 | 1.37 | 0.58 | 0.896 | 0.578 | 1.05 | 0.931 | 0.799
SIIKDYFHRGT [GATM_Y203_A208T] | 0.656 | 0.42 | 0.604 | 0.476 | 0.542 | 0.465 | 0.62 | 0.433 | 0.463 | 0.551 | 0.365 | 0.514 | 0.569 | 0.685 | 0.631 | 0.469
SILTVYSKDNY [PANK2_Y400_A398T] | 0.678 | 0.535 | 0.407 | 0.452 | 0.594 | 0.388 | 0.91 | 0.442 | 0.449 | 0.715 | 0.383 | 0.639 | 0.538 | 0.856 | 0.679 | 0.676
SKEPFYVRCIK [MYO1D_Y586_YF] | 0.939 | 0.951 | 0.56 | 0.42 | 0.634 | 0.449 | 1.18 | 0.339 | 0.434 | 0.921 | 0.347 | 0.727 | 0.354 | 0.8 | 0.79 | 0.413
SLALFYRNVYH [RBL1_Y792_K794N] | 0.923 | 0.511 | 0.433 | 0.603 | 0.741 | 0.45 | 1.25 | 0.419 | 0.524 | 0.869 | 0.382 | 0.576 | 0.381 | 0.743 | 0.566 | 0.446
SLDLSYFHTSS [EMD_Y181_P183H_YF] | 0.799 | 0.517 | 0.6 | 0.549 | 0.595 | 0.441 | 0.881 | 0.464 | 0.559 | 1.06 | 0.566 | 0.645 | 0.466 | 0.907 | 0.591 | 0.599
SLKAFYGEDAK [ALDH3A1_Y272_E270A] | 0.603 | 0.395 | 0.369 | 0.433 | 0.538 | 0.417 | 0.724 | 0.416 | 0.456 | 0.58 | 0.332 | 0.562 | 0.489 | 0.891 | 0.663 | 0.68
SLLLSYYLIKW [NUP160_Y773_P768S] | 1.12 | 0.673 | 0.539 | 2.51 | 2.09 | 0.47 | 1.24 | 0.456 | 0.499 | 2.23 | 0.649 | 0.882 | 0.587 | 1.27 | 1.01 | 0.925
SLNEGYARDFD [FBP1_Y216] | 1.06 | 0.505 | 0.573 | 0.461 | 0.617 | 0.554 | 0.94 | 0.639 | 0.547 | 0.908 | 0.485 | 0.767 | 0.44 | 1.06 | 0.765 | 0.562
